Reference: patent US9322042B2, “Thermostable cellulases, and mutants thereof, capable of hydrolyzing cellulose in ionic liquid” (The Regents of the University of California, priority 2009, dated 2016)

Columns and labels:
Format in all cases: biochemical
[1] = Enzymatic hydrolysis of CMC (DNS / Azo-CMC reducing sugar assay) in the presence of EMIM Acetate ([C2mim][OAc])
Method: (v/v) were incubated at 37° C. (T. viride), 80° C. (TmaEG, Pho EG). The specific activities were calculated as mmoles of reducing sugars formed per min per mg of enzyme. The specific activities are reported as percentages of residual specific activity, taking the specific activity of IL free enzyme a 100% activity. Error bars indicate the standard deviation.
The enzymetic activity of the cellulases of Trichoderma viride, Thermatoga maritima, and Pyrococcus horikoshii are measured under varying concentrations of EMIM Acetate. […] The enzymes activities are calculated using both the Azo-CMC assay and the DNS assay. […] At 10% EMIM Acetate the % specific activity of T. viride endoglucanase is near 0%, while at 20% EMIM Acetate the % specific activity of T. maritima endoglucanase is nearly 40%.
Enzymatic activity is measured on soluble polysaccharide substrates, CMC, using the dinitrosalicylic acid reducing sugar assay. Briefly, CMC (2% w/v) in […] acetate buffer, (100 mM, pH 4.8) is incubated with enzyme at 80° C. for 30 minutes for Tma and 37° C. and 10 minutes for T. viride. The solution is cooled down to 4° C. and 80 μL of DNS solution is added. The reactants are incubated at 95° C. for 5 minutes and cooled down to room temperature before the absorbance is read at 540 nm. The reducing sugar concentration in the sample is calculated from its absorbance using the standard curve of D-glucose. All experiments are run in triplicate.
The purified recombinant enzymes are assayed in the presence of [C2mim][OAc] and the specific activity results are compared with the cellulase from T. viride. [C2mim][OAc] was selected as the IL of choice. The assays are performed under optimum pH and temperatures for T. maritima and T. viride enzymes. Optimum pH and temperatures for T. maritima Cel5A is pH 4.8 and 80° C., respectively. Optimum pH and temperatures for T. viride cellulase is pH 4.5 and 37° C., respectively. The Pho EG is assayed at 80° C. where its specific activity is around 10% less than at 95° C. […] In the presence of 5% (v/v) [C2mim][OAc] the enzyme loses 60% of its activity while it is undetectable in the presence of 10% (v/v) [C2mim][OAc]. Both the recombinant hyperthermophilic enzymes behave very differently. Tma Cel5A in the presence of 5% [C2mim][OAc] loses 24% of its specific activity. At 15% IL (v/v), Tma Cel5A retains 50% of its specific activity. The highest residual activities are observed with Pho EG which retains 100% activity in 20% IL (v/v) (FIG. 6).
(§1) Enzymatic activity is measured on soluble polysaccharide substrates, CMC, using the 3,5-dinitrosalicylic acid (DNS) reducing sugar assay. Briefly, 2% CMC (w/v) in […] acetate buffer, (100 mM, pH 4.5 and pH 4.8 for T. viride and Tma, respectively, and 100 mM MES buffer, pH 6.4 for P. hori EG) is incubated at 80° C. for 30 min for Tma Cel5A and Pho enzymes and 37° C. and 10 min for T. viride. The solution is cooled down to 4° C. and […] of DNS solution is added. The reactants are incubated at 95° C. for 5 min and cooled down to room temperature before the absorbance is read at 540 nm. The reducing sugar concentration in the sample is calculated from its absorbance using the standard curve of D-glucose and cellobiose. For hydrolysis reactions in the presence of [C2mim][OAc], control reactions with CMC in the presence of IL but without no enzyme is subtracted from each measurement. The solid substrate (Avicel and corn stover) hydrolysis reactions are conducted at 80° C. for 15 h for the recombinant enzymes and at 37° C. for 8 h in the case of T. viride cellulose at the optimum pH for each enzyme. The reaction products are monitored using an Agilent 1200 HPLC equipped with Varian 380-LC Evaporative Light Scattering Detector. The total reaction volumes are […] and shaken at 900 rpm at temperature controlled shakers. Enzyme loadings are 0.4 mg per g of glucan and each data point is measured in triplicate. […]

[2] = Activity assay on insoluble substrate: corn stover
Excerpt: Corn stover refers to stalks, leaves and cobs that remain in the fields after the corn kernel harvest and is the largest quantity of biomass residue in the United States and as such is also a LC-biomass source for producing cellulosic ethanol in the United States. [C2mim][OAc] pretreated corn stover is used as a substrate to verify enzymatic efficiency on IL-pretreated biomass and a comparison made with [C2mim][OAc] pretreated Avicel. Avicel is a commercially available microcrystalline cellulose and a good model substrate for analysis. Similar assays are done in the presence of [C2mim][OAc] to simulate real biomass processing and saccharification scenarios. The assay products for the reactions in the presence of IL are detected by high performance anion exchange chromatography (HPAEC). The enzymatic hydrolysis reaction is carried out for 8 h for the T. viride cellulase and 15 h for the hyperthermophilic enzymes, taking into account the half-lives of these enzymes. To compare the amounts of total sugars formed between different reactions, the sum of glucose, xylose and cellobiose are calculated and reported as mmoles of sugars formed per min per mg of enzyme used (Table 7). A comparison of assay results between pretreated and untreated substrate indicates a 2-6 fold increase in hydrolysis products after pretreatment irrespective of the enzyme used, thereby confirming that IL pretreatment can increase the efficiency of hydrolysis of cellulose recovered from biomass. […] The catalytic efficiency of the fungal enzyme however, decreases with increasing IL concentration in the reaction mix. After normalizing for the reaction time and enzyme amounts, the amount of sugars formed is undetectable at 15% [C2mim][OAc]. […] The yield of sugars from Tma Cel5A hydrolysis of pretreated Avicel in the presence of 15% IL decreases by 43% compared to 0% IL, while the decrease is only 10% in the case of Pho EG on the same substrate under similar conditions (Table 7).
The hydrolysis reactions are performed under pH and temperatures for each enzyme as described herein. The reactions are run over a 14 h period with 5-10 mg of enzyme with 6% (w/v) enzyme loading in optimum buffer for each enzyme and run in duplicate. The reaction products are measured on a HPLC and HPAEC. The amounts of sugars detected are shown in mmoles and normalized with regards to amount of enzyme and time of reaction. Different reactions under each enzyme were run under exactly similar conditions.
as §1

[3] = Enzyme stability: overnight pre-incubation in [C2mim][OAc] and half-life; settings: pre-incubation overnight (15 h) in 15% [C2mim][OAc]

B1: Pho EG: cellulase of Pyrococcus horikoshii strain OT3 (Accession No. NP_143072); SEQ ID NO: 21 (protein, listed as Pyrococcus horikoshii)
chain: MEGNTILKIVLICTILAGLFGQVVPVYAENTTYQTPTGIYYEVRGDTIYMINVTSGEETPIHLFGVNWFGFETPNHVVHGLWKRNWEDMLLQIKSLGFNAIRLPFCTESVKPGTQPIGIDYSKNPDLRGLDSLQIMEKIIKKAGDLGIFVLLDYHRIGCTHIEPLWYTEDFSEEDFINTWIEVAKRFGKYWNVIGADLKNEPHSVTSPPAAYTDGTGATWGMGNPATDWNLAAERIGKAILKVAPHWLIFVEGTQFTNPKTDSSYKWGYNAWWGGNLMAVKDYPVNLPRNKLVYSPHVYGPDVYNQPYFGPAKGFPDNLPDIWYHHFGYVKLELGYSVVIGEFGGKYGHGGDPRDVIWQNKLVDWMIENKFCDFFYWSWNPDSGDTGGILQDDWTTIWEDKYNNLKRLMDSCSKSSSSTQSVIRSTTPTKSNTSKKICGPAILIILAVFSLLLRRAPR
activity in 2.9% EMIM Acetate compared with 0% [1]: at least as active in 2.9% EMIM Acetate as in 0% EMIM Acetate
activity in 2.9% EMIM Acetate compared with 0% ([1]; listed as P. horikoshii): remain unchanged
% Specific Activity ([1]; 20% EMIM Acetate): 100%
specific activity at 80° C. less than at 95° C. ([1]; 80° C. vs 95° C.): around 10%
Sugars produced (sum of glucose, cellobiose and xylose) ([2]; 0% [C2mim][OAc]): 0.58 ± 0.1 µmol/min/mg
Sugars produced (sum of glucose, cellobiose and xylose) ([2]; 5% [C2mim][OAc]): 0.59 ± 0.1 µmol/min/mg
Sugars produced (sum of glucose, cellobiose and xylose) ([2]; 10% [C2mim][OAc]): 0.57 ± 0.1 µmol/min/mg
Sugars produced (sum of glucose, cellobiose and xylose) ([2]; 15% [C2mim][OAc]): 0.59 ± 0.1 µmol/min/mg
activity retained after pre-incubation [3]: 70%

B2: Tma Cel5A: wild-type cellulase of Thermatoga maritima strain MSB8 (Accession No. NP_229549); SEQ ID NO: 20 (protein, listed as Thermotoga maritima)
chain: MGVDPFERNKILGRGINIGNALEAPNEGDWGVVIKDEFFDIIKEAGFSHVRIPIRWSTHAYAFPPYKIMDRFFKRVDEVINGALKRGLAVVINIHHYEELMNDPEEHKERFLALWKQIADRYKDYPETLFFEILNEPHGNLTPEKWNELLEEALKVIRSIDKKHTIIIGTAEWGGISALEKLSVPKWEKNSIVTIHYYNPFEFTHQGAEWVEGSEKWLGRKWGSPDDQKHLIEEFNFIEEWSKKNKRPIYIGEFGAYRKADLESRIKWTSFVVREMEKRRWSWAYWEFCSGFGVYDTLRKTWNKDLLEALIGGDSIE
Optimum pH [1]: 4.8
Optimum temperature [1]: 80 °C
tolerance to EMIM Acetate compared to T. viride [1]: more tolerant to EMIM Acetate
% Specific Activity ([1]; 0% EMIM Acetate): 100%
% Specific Activity (Table 5) ([1]; 0% EMIM Acetate): 31 ± 2^ %
activity in 2.9% EMIM Acetate compared with 0% [1]: at least as active in 2.9% EMIM Acetate as in 0% EMIM Acetate
activity in 2.9% EMIM Acetate compared with 0% ([1]; listed as T. maritima): remain unchanged
loss of specific activity ([1]; 5% (v/v) [C2mim][OAc]): 24%
% Specific Activity ([1]; 5% EMIM Acetate): 77%
% Specific Activity (Table 5) ([1]; 5% EMIM Acetate): 24 ± 1^ %
% Specific Activity ([1]; 10% EMIM Acetate): 65%
% Specific Activity (Table 5) ([1]; 10% EMIM Acetate): 20 ± 0.8%
% Specific Activity ([1]; 15% EMIM Acetate): 50%
% Specific Activity (Table 5) ([1]; 15% EMIM Acetate): 15 ± 0.5%
% Specific Activity (Table 5) ([1]; 20% EMIM Acetate): 13 ± 0.9%
% Specific Activity ([1]; 20% EMIM Acetate, listed as T. maritima endoglucanase): 45%
Sugars produced (sum of glucose, cellobiose and xylose) ([2]; 0% [C2mim][OAc]): 3 ± 0.9 µmol/min/mg
Sugars produced (sum of glucose, cellobiose and xylose) ([2]; 5% [C2mim][OAc]): 2 ± 0.3 µmol/min/mg
Sugars produced (sum of glucose, cellobiose and xylose) ([2]; 10% [C2mim][OAc]): 2.4 ± 0.8 µmol/min/mg
Sugars produced (sum of glucose, cellobiose and xylose) ([2]; 15% [C2mim][OAc]): 2.3 ± 0.5 µmol/min/mg
activity retained after pre-incubation [3]: 44%
